One data set concerns the target T1, MTH1203 (Methanothermobacter thermautotrophicus …, UniProt O27271 1-636).
T1 sequence: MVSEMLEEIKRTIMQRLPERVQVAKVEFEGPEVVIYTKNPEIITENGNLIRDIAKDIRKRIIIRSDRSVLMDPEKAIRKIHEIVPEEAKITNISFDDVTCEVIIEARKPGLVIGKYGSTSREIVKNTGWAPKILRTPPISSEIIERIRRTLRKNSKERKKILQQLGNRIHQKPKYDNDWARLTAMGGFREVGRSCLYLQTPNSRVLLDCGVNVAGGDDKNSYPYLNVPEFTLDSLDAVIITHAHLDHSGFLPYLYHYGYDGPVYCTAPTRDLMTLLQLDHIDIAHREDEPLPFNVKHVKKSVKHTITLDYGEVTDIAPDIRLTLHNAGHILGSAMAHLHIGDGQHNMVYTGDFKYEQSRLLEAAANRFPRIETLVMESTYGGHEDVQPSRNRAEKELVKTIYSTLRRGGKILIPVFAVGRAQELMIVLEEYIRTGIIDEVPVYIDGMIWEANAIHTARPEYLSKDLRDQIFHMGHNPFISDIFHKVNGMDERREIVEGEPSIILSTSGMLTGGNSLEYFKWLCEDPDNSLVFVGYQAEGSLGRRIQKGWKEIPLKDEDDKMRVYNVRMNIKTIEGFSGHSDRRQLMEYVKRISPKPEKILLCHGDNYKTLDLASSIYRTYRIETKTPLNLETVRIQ
Description: fluorescence anisotropy; 20 mM Tris pH 8.0, 1 M NaCl, 5 nM 5'-fluorescein RNA; temperature not stated. Particulars: protein: recombinant; tags: His-tag (His-tagged construct used in titrations); label: 5' fluorescein; single strand. (Fluorescence polarisation rises when a labelled molecule tumbles more slowly, as on binding a larger partner.)

Data set [1] deals with the molecule itself. Nature of the data set: SEC-MALS; size exclusion chromatography in line with multiangle laser light scattering; MTH1203 alone; 0.5 M NaCl, or 0.7 M NaCl or KCl. (In gel filtration, larger molecules generally elute earlier.)

B1: U7 (ssRNA)
RNA: UUUUUUU
What is called Kd is the constant that tells how readily two partners part at equilibrium. With B1, in the data set with MTH1203, the Kd is 9.2 µM.

B2: MTH1203 (enzyme, Methanothermobacter thermautotrophicus, UniProt O27271 1-636, looked up)
chain: T1 sequence
notes: MTH1203 from Methanothermobacter thermautotrophicus strain delta H; mth1203 gene amplified from genomic DNA, cloned into pETYSBLIC-3C; predicted molecular mass 73.1 kDa; residues up to 636 named; Dimer at 0.5-0.7 M NaCl or KCl, monomer at 1 M NaCl; full cloning and purification details are in the Supplemental Experimental Procedures; also called β-CASP metallo-β-lactamase family nuclease; source: …
What is called stoichiometry N is a count of units in the complex or per binding partner. With B2, the “stoichiometry N” value in data set [1] was 2.

B3: G7 (ssRNA)
RNA: GGGGGGG
With B3, the binding result with MTH1203 is given as “no binding”.

B4: A7 (ssRNA)
RNA: AAAAAAA
As to B4, the binding result with MTH1203 is reported as “no binding”.

B5: C7 (ssRNA)
RNA: CCCCCCC
Regarding B5, in the data set with MTH1203, the binding result is given as “no binding”.

The values are drawn from paper PMC3095777, “Structure and Activity of a Novel Archaeal β-CASP Protein with N-Terminal KH Domains” (Structure(London, England:1993), 2011).
